Results from US7371842B2, “Polynucleotide encoding a 35 KDA protein thats binds to WF00144” (Astellas Pharma Inc., priority 2002, dated 2008).

Assay: Aldol cleavage reaction of fructose 1,6-bisphosphate, coupled with TIM/G3PDH, NADH 340 nm
Type: biochemical
Settings: F1,6P2 cleaved, 37° C., 30 minutes, pH 8.0
Experimental: The aldolase activity of the human 35 kd protein was determined as follows, according to the method described in a reference (Novel Biochemistry Experiment Lectures, Vol. 15, Metabolism Abnormality, p. 111, edit. Biochemical Society of Japan, publish. Tokyo Kagaku Dojin-sha, Sep. 22, 1992):
Conjugated with triose phosphate isomerase (TIM) and glycerol 3-phosphate dehydrogenase (G3PDH), the aldol cleavage reaction of fructose 1,6-bisphosphate (F1, 6P2) with the 35 kd protein was determined with NADH.
A reaction liquid having the composition mentioned below was prepared, and reacted at 37° C. for 30 minutes. The enzymatic reaction was monitored through the reduction in the 340 nm absorbance owing to the oxidation of NADH in the reaction liquid. The enzymatic reaction was indicated by the number of mols of F1, 6P2, per mg of the protein, cleaved within 1 minute (μmol/min/mg protein).
Reaction liquid 200 μl: 0.25 mM tris HCl buffer (pH 8.0), 0.15 M NaCl, 0.5 mM F1, 6P2 (from Sigma), human 35 kd protein, human liver TIM (500 μg/ml), rabbit skeletal muscle G3PDH (8 units/ml, from Sigma), 0.3 mM NADH (from Nakarai).
For comparison, a commercial product aldolase, Sigma's rabbit skeletal muscle aldolase (A-type aldolase), and an enzyme-free system were tested in the same manner.

For “Sigma's commercial product aldolase: commercial product aldolase, Sigma's rabbit skeletal muscle aldolase (A-type aldolase)”, the “Aldolase Activity (μmol/min/mg protein)” value was 0.278 μmol/min/mg protein.
